Measurements as given in US20060287320A1, “Preparation of thioarabinofuranosyl compounds and use thereof” (Southern Research Institute, priority 1998, published 2006).

B1: dCyd Deaminase Activity Isolated from Human Placenta (Homo sapiens) (protein)
chain: MAQKRPACTLKPECVQQLLVCSQEAKKSAYCPYSHFPVGAALLTQEGRIFKGCNIENACYPLGICAERTAIQKAVSEGYKDFRAIAIASDMQDDFISPCGACRQVMREFGTNWPVYMTKPDGTYIVMTVQELLPSSFGPEDLQKTQ
B2: cytidine deaminase (Homo sapiens) (protein)
chain: MAQKRPACTLKPECVQQLLVCSQEAKKSAYCPYSHFPVGAALLTQEGRIFKGCNIENACYPLGICAERTAIQKAVSEGYKDFRAIAIASDMQDDFISPCGACRQVMREFGTNWPVYMTKPDGTYIVMTVQELLPSSFGPEDLQKTQ

Columns and labels:
Assay in all cases: purified protein, by the assay type
[1] = substrate: Nc1ccn([C@H]2C[C@H](O)[C@@H](CO)O2)c(=S)n1; details: other: dCyd deaminase activity from human placenta, pH 7.4, mean and standard deviation from 3 experiments
Procedure: (§1) Reactions were carried out in solutions containing 20 mM potassium phosphate (pH 7.4), 100 mM KCl, various concentrations of radiolabeled nucleoside, and enzyme. The reactions were stopped with acid, the substrate was separated from the product by paper chromatography, and the radioactivity in each were determined. The kinetic constants were determined from linear double-reciprocal plots of 1/velocity versus 1/concentration of the substrate. The best line was determined by linear regression from at least 5 datum points, and the Km and Vmax were determined from the x and y intercepts. The data presented are the mean and standard deviation from 3 separate experiments.

[2] = substrate: Nc1ccn([C@H]2C[C@H](O)[C@@H](CO)O2)c(=O)n1; details: other: dCyd deaminase activity from human placenta, pH 7.4, mean and standard deviation from 3 experiments
Procedure: as §1

[3] = substrate: Nc1ccn([C@@H]2S[C@H](CO)[C@@H](O)[C@@H]2O)c(=O)n1
[4] = other: dCyd deaminase activity from human placenta, pH 7.4, mean and standard deviation from 3 experiments

Protein | Km [1] | Vmax [1] | Km [2] | Vmax [2] | Km [3, 4] | Vmax [3, 4] | Km ([3]; other: cytidine deaminase, radioactive substrates)
B1 | 111 ± 77 µM | 3.7e-05 µmol/min/mg | 23 ± 2.7 µM | 1.3e-05 µmol/min/mg | 2944 ± 1023 µM | 2.1e-05 µmol/min/mg | –
B2 | – | – | – | – | – | – | 2570 µM
